Results from patent US20260242478A1 (published 2026).
Where no end group is shown, it is not given here.

Legend:
006 PSMA Fab [1] = target: T1, 006 PSMA Fab; assay: clonal phage ELISA on PSMA Fab-coated plate; competitor: PSMA antigen pre-incubated in the well
T1 construct: Biotinylated and captured on neutravidin-coated plates in the phage ELISA; also called Anti-PSMA Fab
Method: (§1) Clonal phage were harvested as crude supernatants and screened via standard ELISAs. […] Prior to the addition of clonal phage. wells were incubated with blocking buffer and PSMA antigen or blocking buffer alone. Without washing or aspirating, clonal phage supernatants were then added to the wells and incubated for a short time. Wells were then washed followed by detection of bound phage using a horse radish conjugated anti-M13 antibody.

006 PSMA Fab [2] = target: T1, 006 PSMA Fab; assay: clonal phage ELISA; biotinylated PSMA Fab on neutravidin plate, anti-M13-HRP detection
Method: as §1

PSMA Fab (006 PSMA Fab) [3] = target: T2, PSMA Fab (006 PSMA Fab); assay: clonal phage ELISA; biotinylated PSMA Fab on neutravidin plate pre-incubated with competitor PSMA antigen; anti-M13-HRP detection
T2 construct: also called Anti-PSMA Fab; anti-PSMA Fab
Method: as §1

PSMA Fab (006 PSMA Fab) [4] = target: T2, PSMA Fab (006 PSMA Fab); assay: clonal phage ELISA; biotinylated PSMA Fab on neutravidin plate, blocking buffer alone; anti-M13-HRP detection;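 further: clonal phage applied as crude supernatants to wells preincubated with blocking buffer, binding read by ELISA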
Method: as §1

PSMA Fab [5] = target: T3, PSMA Fab; assay: phage ELISA, biotinylated PSMA Fab on neutravidin plate pre-incubated with PSMA antigen as competitor, anti-M13-HRP
T3 construct: also called Anti-PSMA Fab; 006 PSMA Fab
Method: as §1

PSMA Fab [6] = target: T3, PSMA Fab; assay: phage ELISA, biotinylated PSMA Fab on neutravidin plate, bound phage detected with anti-M13-HRP
Method: as §1

Binder	phage binding ELISA signal in presence of PSMA (006 PSMA Fab [1])	phage binding ELISA signal (006 PSMA Fab [2])	Phage binding ELISA signal, Anti-PSMA Fab in presence of PSMA antigen (PSMA Fab (006 PSMA Fab) [3])	Phage binding ELISA signal, Anti-PSMA Fab (PSMA Fab (006 PSMA Fab) [4])	Phage binding ELISA signal, Anti-PSMA Fab with PSMA antigen (PSMA Fab [5])	Phage binding ELISA signal, Anti-PSMA Fab (PSMA Fab [6])
VVKWCIPTWMCQTL [Phage-2378]	0.101	1.39				
LGIWCIPEWMCVSA [Phage-2381]	0.0793	1.39				
VSNWCIPRGLCTQM [Phage-2320]			0.0665	1.45		
LERWCIPDWMCEWP [Phage-2394]					0.078	1.37
SDNWCKPKWMCETI [Phage-2319]			0.116	1.45		
DAKWCIPDWMCYGF [Phage-2387]	0.0838	1.38				
VFHLCMPPWMCSQD [Phage-2390]					0.0997	1.38
LEKWCIPTWMCEMT [Phage-2322]			0.0679	1.45		
TIKWCTPPWMCIMN [Phage-2388]	0.103	1.38				
VQKWCIPPWMCQIS [Phage-2380]	0.0907	1.39				
DVRWCTPPWMCVAM [Phage-2400]					0.078	1.37
FGISCTPSWMCEGF [Phage-2398]					0.0988	1.37
FVNWCIPTWMCPEI [Phage-2314]			0.233	1.47		
EVKWCIPEWMCMVV [Phage-2396]					0.0647	1.37
WVKWCTPPWMCEWD [Phage-2389]					0.123	1.38
MQHWCVPPWMCQSL [Phage-2401]					0.082	1.37
HSHWCIPPWMCTFV [Phage-2324]			0.162	1.45		
DFMRCTPEWMCTGF [Phage-2382]	0.0663	1.39				
IPKWCTPVWMCAGF [Phage-2385]	0.0806	1.38				
MEQWCIPQWMCSGF [Phage-2317]			0.0911	1.46		
EARWCTPPWMCAYM (cysteine pairing not given here; also: displayed on bacteriophage by fusion to pIII) [Phage-2315]			0.0724	1.47		
SVHWCTPPWMCQGF [Phage-2327]			0.0771	1.45		
LEKWCRPAWMCNGM [Phage-2393]					0.0594	1.38

Binder	phage binding ELISA signal in presence of PSMA (006 PSMA Fab [1])	phage binding ELISA signal (006 PSMA Fab [2])	Phage binding ELISA signal, Anti-PSMA Fab in presence of PSMA antigen (PSMA Fab (006 PSMA Fab) [3])	Phage binding ELISA signal, Anti-PSMA Fab (PSMA Fab (006 PSMA Fab) [4])	Phage binding ELISA signal, Anti-PSMA Fab with PSMA antigen (PSMA Fab [5])	Phage binding ELISA signal, Anti-PSMA Fab (PSMA Fab [6])
MGNWCIPEWMCWGT [Phage-2374]	0.0727	1.4				
LEKWCMPPWMCSGT (cysteine pairing not given here; also: displayed on bacteriophage by fusion to pIII) [Phage-2313]			0.0701	1.47		
HDKLCIPLWMCDGV [Phage-2377]	0.0834	1.39				
LEKWCTPVWMCEGV [Phage-2318]			0.0702	1.46		
LHKWCTPAWMCEVP [Phage-2379]	0.0904	1.39				
VEKWCKPEWMCTSL [Phage-2386]	0.0692	1.38				
FEHWCTPPWMCFSS [Phage-2383]	0.0713	1.38				
FPKWCTPSWMCDFV [Phage-2391]					0.0984	1.38
ASMWCIPPWMCAED [Phage-2395]					0.085	1.37
FYKWCTPEWMCTVN [Phage-2384]	0.138	1.38				
GPTLCIPAWMCSGM [Phage-2326]			0.0802	1.45		
GMLACTPAWMCEGF [Phage-2316]			0.0923	1.47		
LDKWCIPPWMCETV [Phage-2321]			0.0597	1.45		
GEKWCIPTWMCDWT [Phage-2373]	0.0544	1.4				
SPKWCTPSWMCELQ [Phage-2392]					0.06	1.38
WEKWCTPAWMCAVA [Phage-2399]					0.0716	1.37
VMKWCTPEWMCQVF [Phage-2402]					0.0622	1.37
VVKWCTPAWMCELQ [Phage-2397]					0.0757	1.37
VEKLCIPHWMCEAS [Phage-2325]			0.0647	1.45		
DGKWCIPPWMCAMA [Phage-2375]	0.0859	1.4				
VDKWCIPAWMCVSA [Phage-2328]			0.0715	1.45		
PDKWCIPQWMCDIT [Phage-2376]	0.0617	1.39				
WDHWCTPAWMCFNA [Phage-2323]			0.119	1.45		
